Experimental data: the nanobody polyreactivity screen of Harvey et al. (2022)

Assay: yeast display, Sf9 membrane polyspecificity reagent, FACS + sequencing; frameworks hold sequencing errors
How it was run: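 In a synthetic yeast display library (Saccharomyces cerevisiae BJ5465), nanobody expression was induced with galactose for 36–48 hours. FACS gates were set low and high (top ~1%) using anti-HA fluorescence for expression and streptavidin fluorescence for binding of the Sf9 membrane reagent. Each polyreactivity label is drawn from the gate of origin.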

Q: With “QVQLVESGGGLVQAGGSLRLSCAASGSSFVYNVMGWYRPAPGKERELVAAIRWRGGSTYADSVKGRFTISRDNAKNTVYLQMNSLKPEDTAVYYCAAGIPRYWYAGHYDYWGQGTQVTVSS” as the sequence, how does the “polyreactivity (PSR sort gate)” value read?
A: low polyreactivity

Q: For “QVQLVESGGGLVQAGGSLRLSCAASGSSFYYYAMGWYRQAPGKERELVAAITSGDTTNYADSVKGRFTISRDNAKNTVYLQMNSLIPEDTAVYYCAVDLNTTAFYPEAATYLDEYWGQGTQVTVSS”, which “polyreactivity (PSR sort gate)” value is on record?
A: low polyreactivity

Q: For “QVQLVESGGGLVQAGGSLRLSCAASGSSLDSYTMGWSRQAPGKERELVAAITSDGGSTYYADSVKGRFTISRDNAKNTVYLQMNSLKPEDTAVDYCAKLSRYYGFWYTPDFDYWGQGTQVTVSS”, which “polyreactivity (PSR sort gate)” value is on record?
A: high polyreactivity

Q: For “QVQLVESGGGLVQAGGSLRLSCAASGSSVYSYAMGWYRQAPGKERELVAAISWRGGSTYYADSVKGRFTISRDNAKNTVYLQMNSLKPEDTAVYYCAAYYYTGPTTVESDYWGQGTQVTVSS”, which “polyreactivity (PSR sort gate)” value is on record?
A: high polyreactivity

Q: Which “polyreactivity (PSR sort gate)” value does the source give for “QVQLVESGGGLVQAGGSLRLSCAASGSTAENVMGWYRQAPGKERELVAAISSRGGSTYYADSVKGRFTISRDNAKNTVYLQMNSLKPEDTAVYYCAAEYVSHFSGDRYDYWGQGTQVTVSS” here?
A: low polyreactivity

Q: With “QVQLVESGGGLVQAGGSLRLSCAASGSTARYAMGWNRQAPGKERELVAAITGRTGRTNYADSVKGRFTISRDNAKITVYVQMNSLKPEDTAVYYCAKRAWRAVRWTYGYWGQGSQVTVSS” as the sequence, how does the “polyreactivity (PSR sort gate)” value read?
A: high polyreactivity

Q: With “QVQLVESGGGLVQAGGSLRLSCAASGSTCASYAMGWYRQAPGKERELVAAITDSGGSTYYADSVKGRFTISRDNAKNTVYLQMNSLKPEDTAVYYCAAYGAYFSYHDYEYWGHGTQVTVSS” as the sequence, how does the “polyreactivity (PSR sort gate)” value read?
A: low polyreactivity

Q: For “QVQLVESGGGLVQAGGSLRLSCAASGSTCDYYAMGWYRQAPGKEREIVAAITTGGDTTNYADSVKGRFTISRDNAKNTVYLQMNSLKPEVTAVYYCARDTGYDLIVLPDDSWGQGTQVTVSS”, which “polyreactivity (PSR sort gate)” value is on record?
A: low polyreactivity

Q: Which “polyreactivity (PSR sort gate)” value does the source give for “QVQLVESGGGLVQAGGSLRLSCAASGSTCILNAMGWYRQAPGKERELVATISSSDTSTYYADSVKGRFTISRDNAKNTVYLQMNCLKPEDTAVYYCNADYYTTSYLQGVYHYGVEYDFWGQGTQVTVSS” here?
A: low polyreactivity

Q: Which “polyreactivity (PSR sort gate)” value does the source give for “QVQLVESGGGLVQAGGSLRLSCAASGSTCPYYAMGWYRQAPRKEMELVASIRKRGGGTSYADSVKGRFTISRDNAKNTVYLQMNSLKPEDTALYYCAVRVYQLRYTGYDYWGQCTQVTVSS” here?
A: high polyreactivity

Q: Which “polyreactivity (PSR sort gate)” value does the source give for “QVQLVESGGGLVQAGGSLRLSCAASGSTCVYYPMGWYRQAPGKERELVAAIRGRDGNTYYADSVKGRFTISRDNAQNTVYLQMNSLKPEDSAVYSSAATRRNQLYGVAYRYDYWGQGTQVTVSS” here?
A: high polyreactivity

Q: With “QVQLVESGGGLVQAGGSLRLSCAASGSTFAANAMGWDRQAPGKERELVAAITSGGGSTYYADSVKGRFTISRDNAKNTVYLQMNSLKPEDTAVYYCAALQSHGVDYDYWGQGSQVTVSS” as the sequence, how does the “polyreactivity (PSR sort gate)” value read?
A: low polyreactivity

Q: With “QVQLVESGGGLVQAGGSLRLSCAASGSTFAANAMGWYRPAPGKERELDAAITSSGGSTYYADSVKGRFTISRDNAKNTVYLQMISLKPEDTAVYYCNKDIERYVRIYDSWGQGTQVTVSS” as the sequence, how does the “polyreactivity (PSR sort gate)” value read?
A: low polyreactivity

Q: With “QVQLVESGGGLVQAGGSLRLSCAASGSTFAANAMGWYRQAPGKERELVAALTRSGGSTYYADSVKGRFTISRDNAKNTVYLQMNSLKPEDTAVYYCASKYHTRGVQHGYWGQGTQVTVSS” as the sequence, how does the “polyreactivity (PSR sort gate)” value read?
A: low polyreactivity

Q: Which “polyreactivity (PSR sort gate)” value does the source give for “QVQLVESGGGLVQAGGSLRLSCAASGSTFAANTMGWYRQAPGKERELVAAITVRGGSTYYADSVKGRFTISRDNAKNTVYLQMNSLKPEDTAGYYGAAERPPYGYLVVGYVSTQYYYWGQGTQVTVSS” here?
A: low polyreactivity

Q: Which “polyreactivity (PSR sort gate)” value does the source give for “QVQLVESGGGLVQAGGSLRLSCAASGSTFAANTMGWYRQAPGKEWELVAAITVRGGSTYYADSVKGRFTISRDNAKTTVYLQMNSLKPEDTAVYYCAAERPPYGYLVVGYVSTQYYYWGQGTQVTVSS” here?
A: low polyreactivity

Q: For “QVQLVESGGGLVQAGGSLRLSCAASGSTFAAYAAMGWYRQAPGKERELVAAISWNGGSTFYADSVKGRFTISRDNAKNTVYLQMNSLKPEDTAVYYCAVEYYWTLDFTFTFPLSYYWGQGSQVTVSS”, which “polyreactivity (PSR sort gate)” value is on record?
A: low polyreactivity

Q: For “QVQLVESGGGLVQAGGSLRLSCAASGSTFAAYVMGWYRQAPGKEWELVAAITSGGSTYYADSVKGRFTISRDNAKNTVYLQMNSLKPEDTAVYYCAASWIRYRWRYGYWGQGTQVTVSS”, which “polyreactivity (PSR sort gate)” value is on record?
A: high polyreactivity

Q: Which “polyreactivity (PSR sort gate)” value does the source give for “QVQLVESGGGLVQAGGSLRLSCAASGSTFADYAMGWYRQAPGKERELVAAITGDGGNTYYADSVKGRFTISRDTAKNTVYLQMTSLKPEDTAVYYCAAEHESGAYYYWGLGTQVTVSS” here?
A: high polyreactivity

Q: With “QVQLVESGGGLVQAGGSLRLSCAASGSTFADYVMGWYRQAPGKERELVAAISRSGGSTYYADSVKGRFTISRDNAKNTVYLQMNSLKPEDTAVYYCATDITPAISVEYDYWGQGTQVTVSS” as the sequence, how does the “polyreactivity (PSR sort gate)” value read?
A: high polyreactivity

Q: For “QVQLVESGGGLVQAGGSLRLSCAASGSTFAGNAIGWYRQAPGKERELVAAITSGTGTHYADSVKGRFTISRDNAKNSVYLQMNSLKPEDTAVYYCAAEVWSWAGIWGYEYWGQGTQVTVSS”, which “polyreactivity (PSR sort gate)” value is on record?
A: low polyreactivity

Q: Which “polyreactivity (PSR sort gate)” value does the source give for “QVQLVESGGGLVQAGGSLRLSCAASGSTFAGNAMGWYRHAPGKERELVAAIDSSTGSTYYADSVKGRFTISLDNAKNTVYLQMNSLKPEDTAVYYCNKTSFLVKLDFWGQGTQVTVSS” here?
A: low polyreactivity
